What was measured:
[1] = NGI-1 overnight, R4-ICD immunoblot; details: glycan lost; control: vehicle
[2] = confocal immunofluorescence, giantin co-staining; details: glycan lost; control: wild type
[3] = active lysate incubation, R4-ICD/FGFR4 immunoblot ratio; details: glycan lost; control: wild type
[4] = kifunensine 5 μM time course, R4-ICD immunoblot; details: glycan changed form; control: 0 h kifunensine

FGFR4: NGI-1 100 μM
other: proteolytic processing [1]: no change

FGFR4: N322Q
localisation_or_trafficking [2]: no change

FGFR4: NGI-1 10 μM
other: proteolytic processing [1]: increases

FGFR4: N311Q
other: proteolytic processing, other: relative scale 0 to 3+ [3]: decreases, ++ vs +++
localisation_or_trafficking [2]: no change

FGFR4: kifunensine 16 h
other: proteolytic processing [4]: no change

FGFR4: N290Q
other: proteolytic processing, other: relative scale 0 to 3+ [3]: abolishes, 0 vs +++
localisation_or_trafficking [2]: no change

FGFR4: kifunensine 8 h
other: proteolytic processing [4]: increases

— article PMC8940645
